Experimental findings from article PMC4376777 (PLoS Pathogens, 2015) are described below.

The test deals with T1, GST–PPM1A (human, UniProt P35813-1 1-382).
T1 construct: also called GST–PPM1A-WT; purified PPM1A
T1 sequence (looked up): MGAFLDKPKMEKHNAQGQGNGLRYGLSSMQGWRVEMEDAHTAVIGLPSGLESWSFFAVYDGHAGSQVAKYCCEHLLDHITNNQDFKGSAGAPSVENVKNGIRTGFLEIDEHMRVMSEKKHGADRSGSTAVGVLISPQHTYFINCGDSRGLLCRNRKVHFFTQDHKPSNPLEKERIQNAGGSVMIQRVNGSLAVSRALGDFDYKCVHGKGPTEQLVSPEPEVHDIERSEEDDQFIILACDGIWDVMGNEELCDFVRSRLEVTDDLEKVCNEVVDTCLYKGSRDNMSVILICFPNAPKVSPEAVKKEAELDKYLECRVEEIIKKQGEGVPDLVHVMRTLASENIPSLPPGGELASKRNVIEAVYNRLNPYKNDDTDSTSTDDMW
The test can be described thus: pull-down; 1 μg of each purified protein incubated with glutathione–Sepharose beads at 4°C overnight; washed with 50 mM Tris-HCl pH 7.5, 200 mM NaCl, 10% glycerol, 0.1% Triton X-100; immunoblot. The settings on record: both partners purified.

B1: His–STING (amino acids 153–379) (domain or fragment, human, UniProt Q86WV6 153-379, looked up)
chain: FNVAHGLAWSYYIGYLRLILPELQARIRTYNQHYNNLLRGAVSQRLYILLPLDCGVPDNLSMADPNIRFLDKLPQQTGDHAGIKDRVYSNSIYELLENGQRAGTCVLEYATPLQTLFAMSQYSQAGFSREDRLEQAKLFCRTLEDILADAPESQNNCRLIAYQEPADDSSFSLSQEVLRHLRQEEKEEVTVGSLKTSAVPSTSTMSQEPELLISGMEKPLPLRTDFS
Regarding B1, the binding result is on record as “binds”.
